Where no end group is shown, it is not given here. The star is where a group is joined. Farnesyl = CC(C)=CCC/C(C)=C/CC/C(C)=C/C*
Legend:
[1] = molecular target: calmodulin (CaM), full-length, amino acids 2-148 (human, UniProt P0DP23 2-148); test: ITC
[2] = molecular target: calmodulin (CaM), full-length, amino acids 2-148 (human, UniProt P0DP23 2-148); test: ITC; remark: listed apart in the source

Kd [1] | Kd [2] | Binder
30000 nM |  | KSKTKC (not fully specified; cysteine with a five-carbon prenyl group, methylated (PMe)) [KSKTKC-prenyl methylated (KSKTKC-PMe)]
400 nM |  | KSKTKC(Farnesyl)-OMe [KSKTKC-FMe]
 | 300 nM | HKEKMSKDGKKKKKKSKTKC(Farnesyl)-OMe [HVR-FMe (hypervariable region of KRAS4b, farnesylated and carboxy-methylated)]
3000 nM |  | KSKTKC(geranyl) (not fully specified (C-terminus); also: methylated (site not given here)) [KSKTKC-geranyl methylated (KSKTKC-GMe)]

— article PMC6428923 (Biophysical Journal, 2019)
